The text below walks through data of publication PMC9023272 (Nucleic Acids Research, 2022).

Assay [1] has as its target T1, DEAD-box protein 5 (Dbp5), full length (Saccharomyces cerevisiae, UniProt P20449 1-482).
T1 sequence (looked up): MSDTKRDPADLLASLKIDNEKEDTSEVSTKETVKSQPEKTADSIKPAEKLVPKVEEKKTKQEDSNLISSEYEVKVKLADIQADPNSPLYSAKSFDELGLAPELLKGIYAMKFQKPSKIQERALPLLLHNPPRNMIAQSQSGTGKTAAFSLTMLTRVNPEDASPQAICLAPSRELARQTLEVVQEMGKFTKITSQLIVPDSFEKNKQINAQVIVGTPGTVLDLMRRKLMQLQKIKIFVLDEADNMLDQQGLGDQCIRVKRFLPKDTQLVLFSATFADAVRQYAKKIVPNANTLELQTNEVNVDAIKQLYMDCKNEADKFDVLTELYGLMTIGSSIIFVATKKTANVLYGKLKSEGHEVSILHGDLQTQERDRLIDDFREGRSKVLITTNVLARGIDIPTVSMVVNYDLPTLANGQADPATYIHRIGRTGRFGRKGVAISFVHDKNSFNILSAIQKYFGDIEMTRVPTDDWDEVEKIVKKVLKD
Briefly: detailed balance of Scheme 3 from measured equilibrium constants.

Assay [2] addresses T1, DEAD-box protein 5 (Dbp5), full length. The assay is described as above. The source holds these as a separate data set.
Assay [3] shares this target. Described as above. This is another data set of the same source.
Assay [4] has the same target. Nature of the assay: detailed balance of Scheme 1 from measured equilibrium constants.
The target is the same in assay [5]. Nature of the assay: stopped-flow fluorescence.

B1: Gle1 (a.a. 244–538), soluble truncated (domain or fragment, Saccharomyces cerevisiae, UniProt Q12315 244-538, looked up)
chain: TNFDKISKMFWHYKDKIAQIKQDIVLPIKKADVNVRNLLSRHKRKINPKFGQLTNSNQQLFKIQNELTQLINDTKGDSLAYHWILNFIAKAVVHQAETEVRVKPESALPLGKLTLYLLVQFPELQELFMARLVKKCPFVIGFTCEIDTEKGRQNMGWKRNNENKWEDNTSYDERMGGILSLFAIITRLQLPQEFITTTSHPFPIALSWHILARICNTPLNLITNTHFVILGSWWDAAAVQFLQAYGNQASKLLILIGEELTSRMAEKKYVGAARLRILLEAWQNNNMESFPEMSP
For the molecule B1, the Kd (as a rule, the concentration at which binding is half-saturated) stood at 500 ± 200 nM in assay [1]; 1.5 ± 0.8 nM in assay [2]; 600 ± 200 nM in assay [3]; 800 ± 300 nM in assay [4]; 170 ± 150 nM in assay [5].
